What was measured:
[1] = molecular target: biotinylated NT-LSD1 (residues 100–151) (human); assay: SPR; biotinylated NT-LSD1 immobilised at 560 RU; ΔN LSD1-CoREST injected at 25-1000 nM, 40 μl/min, in running buffer
[2] = molecular target: biotinylated recombinant human nucleosome (unmodified, 147 bp 601 DNA) (human) (UniProt P68431); assay: SPR; biotinylated recombinant human nucleosomes (147 bp 601 DNA) immobilised on a streptavidin chip SA at 4000-5000 RU; LSD1-CoREST injected at 5-2000 nM (full length up to 500 nM), 40 μl/min; Biacore 3000, 298 K; running buffer 10 mM Tris, 100 mM NaCl, 1 mM EDTA, 2 mM TCEP, 0.005% Tween 20, pH 7.4; apparent Kd
[3] = molecular target: ΔN LSD1 (171–852)–CoREST (286–482) complex (human) (UniProt O60341)
[4] = molecular target: ΔN LSD1 (171–852)–CoREST (286–482) complex (human) (UniProt O60341); assay: enzyme inhibition kinetics (peroxidase-coupled demethylase assay); 0.3 μM ΔN LSD1-CoREST, 50 mM Hepes (Na) pH 7.5, 25 °C; H3K4me2 peptide (1-21) substrate 10-60 μM; NLS 0-10 μM or NLSp∗ 0-100 μM; fit to competitive inhibition; Ki called apparent in the legend

Row | Kd [1] [nM] | Kd [2] [nM] | IC50 of inhibition of ΔN LSD1-CoREST demethylation of H3K4me2 nucleosomes (quantitative Western blot, NLS peptide 10-400 μM) [3] [nM] | Ki [4] [nM] | Substance
1 | 571 | 1760 |  |  | ΔN LSD1 (171–852)–CoREST (286–482) complex (from UniProt O60341 171-852)
2 |  |  | 30400 | 3300 | NLS peptide (LSD1 aa 107–120)
3 |  |  |  | 38700 | phosphomimic NLS peptide (aa 107–120, T110D/S111D)
4 |  | 103 |  |  | full-length LSD1 (1–852)-CoREST (286–482) complex (from UniProt O60341 1-852)

Source: publication PMC11388019, “Autoregulatory mechanism of enzyme activity by the nuclear localization signal of lysine-specific demethylase 1 [drawing 1]” (The Journal of Biological Chemistry, 2024)
